{"source": "patent US20110158985A1", "binders": {"B1": {"name": "P12f4 Fab (Fab, V domains shown)", "VH": "QVTLRESGPALVKPTQTLTLTCTFSGFSLSTPGMSVGWIRQPPGKALEWLADIWWDGKKHYNPSLKDRLTISKDTSKNQVVLKVTNMDPADTATYYCARDMIFNFYFDVWGQGTTVTVSS", "VL": "DIQMTQSPSTLSASVGDRVTITCSLSSRVGYMHWYQQKPGKAPKLLIYDTRGLPSGVPSRFSGSGSGTEFTLTISSLQPDDFATYYCFQGSGYPFTFGGGTKVEIK"}, "B2": {"name": "A1h5 Fab (Fab, V domains shown)", "VH": "B1 VH with P32A, F105W", "VL": "B1 VL with R28S, R51F, G52F, L53H, P54R"}}, "substrate": "F protein of RSV (Long strain) (RSV (Long strain)) (UniProt P12568)", "sequence (P12568 26-574)": "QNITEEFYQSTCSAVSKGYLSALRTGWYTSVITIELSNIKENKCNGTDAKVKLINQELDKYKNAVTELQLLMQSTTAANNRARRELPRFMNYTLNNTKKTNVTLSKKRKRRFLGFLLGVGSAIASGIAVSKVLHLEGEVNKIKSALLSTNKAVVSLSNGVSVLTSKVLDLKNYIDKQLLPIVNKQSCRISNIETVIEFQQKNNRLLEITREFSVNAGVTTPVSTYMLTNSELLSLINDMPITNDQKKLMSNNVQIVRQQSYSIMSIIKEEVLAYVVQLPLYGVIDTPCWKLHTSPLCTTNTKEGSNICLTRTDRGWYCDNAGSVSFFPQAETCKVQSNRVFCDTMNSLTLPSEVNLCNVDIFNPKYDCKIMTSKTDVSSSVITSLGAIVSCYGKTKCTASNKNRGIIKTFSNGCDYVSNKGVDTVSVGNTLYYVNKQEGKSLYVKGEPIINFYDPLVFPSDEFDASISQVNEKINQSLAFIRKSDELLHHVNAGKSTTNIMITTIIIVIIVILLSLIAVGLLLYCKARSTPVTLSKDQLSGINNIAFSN", "assay": "cell-based or functional assay", "note": "Where a chain is given by its changes, count along the chain named."}
{"binder": "B1", "values": [{"measurement": "IC50", "value": 0.7, "unit": "nM"}, {"measurement": "Mean IC50 (Control)", "value": 0.0351, "unit": "µg/mL"}, {"measurement": "Mean IC50 (Curve)", "value": 0.0464, "unit": "µg/mL"}]}
{"binder": "B2", "values": [{"measurement": "Mean IC50 (Control)", "value": 0.176, "unit": "µg/mL"}, {"measurement": "Mean IC50 (Curve)", "value": 0.194, "unit": "µg/mL"}]}
